IntAct's records for PubMed 12713445

Tests used:
dlg2_human DLG2 = dlg2_human DLG2 (UniProt Q15700)
dlg3_human DLG3 = dlg3_human DLG3 (UniProt Q92796)
Chain of UniProt Q92796 (Q92796 whole entry): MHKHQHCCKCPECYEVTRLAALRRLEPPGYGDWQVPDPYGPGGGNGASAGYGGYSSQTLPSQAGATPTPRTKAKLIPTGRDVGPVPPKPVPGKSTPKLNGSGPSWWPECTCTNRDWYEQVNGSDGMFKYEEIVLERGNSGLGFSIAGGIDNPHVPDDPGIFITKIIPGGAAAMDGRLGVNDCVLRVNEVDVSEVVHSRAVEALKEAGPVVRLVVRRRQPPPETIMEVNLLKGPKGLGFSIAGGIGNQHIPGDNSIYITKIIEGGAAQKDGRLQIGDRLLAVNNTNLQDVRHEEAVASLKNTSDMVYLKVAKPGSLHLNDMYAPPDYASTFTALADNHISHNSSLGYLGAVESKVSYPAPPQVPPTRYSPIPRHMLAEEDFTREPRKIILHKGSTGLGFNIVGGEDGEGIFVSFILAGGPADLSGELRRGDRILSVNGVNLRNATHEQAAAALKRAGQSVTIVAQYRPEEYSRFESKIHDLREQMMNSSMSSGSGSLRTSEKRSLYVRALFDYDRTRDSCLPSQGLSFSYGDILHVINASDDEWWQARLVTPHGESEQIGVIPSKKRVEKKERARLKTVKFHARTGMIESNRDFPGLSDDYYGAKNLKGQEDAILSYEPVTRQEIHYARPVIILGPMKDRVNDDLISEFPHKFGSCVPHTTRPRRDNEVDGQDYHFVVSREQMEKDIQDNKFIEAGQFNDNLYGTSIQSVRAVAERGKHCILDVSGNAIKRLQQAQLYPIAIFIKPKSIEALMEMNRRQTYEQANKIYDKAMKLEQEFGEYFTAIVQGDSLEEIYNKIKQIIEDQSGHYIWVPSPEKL

Chain of UniProt Q15700 (Q15700 whole entry, looked up): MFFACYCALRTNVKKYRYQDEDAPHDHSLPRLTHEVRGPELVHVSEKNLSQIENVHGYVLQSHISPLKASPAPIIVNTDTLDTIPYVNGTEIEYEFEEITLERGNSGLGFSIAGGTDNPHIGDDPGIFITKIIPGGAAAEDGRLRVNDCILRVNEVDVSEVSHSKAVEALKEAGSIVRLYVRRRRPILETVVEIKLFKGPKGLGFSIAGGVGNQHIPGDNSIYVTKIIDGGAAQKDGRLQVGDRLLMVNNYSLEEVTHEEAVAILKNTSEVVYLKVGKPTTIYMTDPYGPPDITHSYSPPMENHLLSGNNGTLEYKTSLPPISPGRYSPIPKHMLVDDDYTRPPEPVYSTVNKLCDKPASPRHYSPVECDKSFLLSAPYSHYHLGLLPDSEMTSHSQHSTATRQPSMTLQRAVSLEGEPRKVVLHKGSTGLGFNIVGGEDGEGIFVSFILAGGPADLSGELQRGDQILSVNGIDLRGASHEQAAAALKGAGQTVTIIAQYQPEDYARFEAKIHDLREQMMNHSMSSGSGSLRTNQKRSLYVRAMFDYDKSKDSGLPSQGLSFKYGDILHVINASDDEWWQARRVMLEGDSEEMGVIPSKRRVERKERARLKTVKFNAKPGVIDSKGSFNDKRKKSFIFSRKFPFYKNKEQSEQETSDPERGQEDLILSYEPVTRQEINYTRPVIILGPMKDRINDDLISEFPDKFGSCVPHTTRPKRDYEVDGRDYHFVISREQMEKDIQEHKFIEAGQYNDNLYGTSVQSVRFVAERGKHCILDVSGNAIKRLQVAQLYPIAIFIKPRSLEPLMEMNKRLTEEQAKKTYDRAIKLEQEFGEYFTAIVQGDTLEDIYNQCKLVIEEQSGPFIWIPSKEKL

effect of a mutation on the interaction (dlg2_human DLG2): disrupting interaction strength | effect of a mutation on the interaction (dlg3_human DLG3): disrupting interaction strength
Substance: Low-density lipoprotein receptor-related protein 2 (Homo sapiens), P98164 S4653V;V4655S
